Tested on: MS2 coat protein
Assay: apparent KD of MS2 coat protein; higher = weaker reporter binding
Settings: Eterna round: R107
Outline: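 With or without constant ligand, designed RNA switches in 100 mM Tris-HCl pH 7.5, 80 mM KCl and 4 mM MgCl2 were titrated with SNAP-549-labelled MS2 coat protein. Concentrations went up in twofold steps from 0.7 or 1.5 nM to 3 µM. The switches had been transcribed on-chip from Illumina sequencing clusters, and apparent KD is the per-design median of normalised cluster binding-curve fits.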

[1] = input ligand: theophylline 20 uM
[2] = input ligand: theophylline 2 mM
[3] = input ligand: tryptophan 2.4 mM

| Sequence | apparent KD of MS2 coat protein (input ligand: arginine 13.2 mM) [nM] | apparent KD of MS2 coat protein (input ligand: none) [nM] | apparent KD of MS2 coat protein [1] [nM] | apparent KD of MS2 coat protein [2] [nM] | apparent KD of MS2 coat protein [3] [nM] |
| --- | --- | --- | --- | --- | --- |
| GGCCUGUGGAGCGAUACCAGCUUGAGUGUACUGGCCAGGUACAUGAGGAUCACCCAUGUAAGCCCUUGGCAGCGCUCCAGAGGCC [#1 Exclusion - Theophylline B Attempt #18 (HarryS)] | 9.41 | 12.1 | 16.4 | 56.7 | 13.2 |
| AAAGGUCGGACGGCCGCCACUGGCUAGGUGGGUUCCGGGAUUACAUGAGGAUCACCCAUGUAUACCAGGACCGGGUUCGCCUCGU [Lageonor] | 9.51 | 11.9 | 12.2 | 8.28 | 17.8 |
| UGUAUGUGAUUUGAUACCAGACCAGCUGGUGGUACUUGAGGAUCACCCAAGUAGGUUUGGGUCCCUUGGCAGCAAAUCGCAUACU [SS Theo B #24 Ms10] | 165 | 163 | 142 | 30.8 | 198 |
| CACAGUGCGAAAUUGAAACCGCACGAUCCUCGAGGACCGGUACGGCCGCCACUCGCGCGGGUCGUACAUGAGGAUCACCCAUGUC [Zaarmaqu] | 71.8 | – | 351 | 869 | – |
| CUACAUUUGUAGAAACCGGUCACCGUUACUCGAGGACCGGUACGGCCGCCACUCGUGUCACGUGAUACAUGAGGAUCACCCAUGU [Tryptophan A 11] | 28.9 | – | 45.7 | 54.8 | – |
| GGCGGACUUAUAGAUACCAGCACAUGAGGAUCACCCAUGUAUGGUCGCACCUCAGUCCUGUGCCCUUGGCAGCUAUAAUAGAUUU [Esxeanbi] | 20.8 | – | 49.8 | – | 16.4 |
| ACAUGGGUCUGAAGGAGCGCGAUAACAUGAGGAUCACCCAUGUAAAGUGGAACAUGAUAAUCGCAGGUAGGUCGCAGUAAAACCC [#26 Same State - Arginine B] | 81.6 | 412 | 293 | 476 | 328 |
| GGUGGUGUGACGGAUACCAGCCACCGCGGCAACGCAACAUGAGGAUCACCCAUGUUGGGUGGCCCUUGGCAGCUGUCGUGCGGCG [#1 Same State - Theophylline B Attempt #24 (HarryS)] | 40.1 | – | 91.2 | – | 53.9 |
| CUACAUUUGUAGAAACCGGUCAACAAUAAUCGAGGACCGGUACGGCCGCCACUCGAUGUGAAAUCACAUGAGGAUCACCCAUGUA [Tryptophan A 18] | 18.9 | – | 23.8 | 19.8 | – |
| ACAUGAGGAUCACCCAUGUUCCUCGCCGAUACCAGUGAAGAAUUACGCCCUUGGCAGCGGAAAGAGUAUUUUGGAGAUGAGGUAC [6.Z] | 51.7 | – | 127 | – | 66 |
| UAACAUGAGGAUCACCCAUGUUUGAAGGAACGAGGACCGGUACGGCCGCCACUCGACGAGUGGAUGAGAAGUGGGAUAGUGUGCU [Same State Trp A GF7] | 15.3 | – | 18.2 | 14.3 | – |
| GGCACAUAGUCGGCCGCCACUAGUGGGAAAUGGGAGAACAUGAGGAUCACCCAUGUUGCGUAGCCUAGGACCGGGACUAUGUGCC [Hippopotamus] | 29.1 | 30.1 | 37.6 | 33.2 | 35 |
| AAAUAAAUACAUGAGGAUCACCCAUGUGAAGGAGCGCGCGUUAGCGCAGGUAGGUCGCACAUGAACUCCAAAGUGCAAAAGCACA [MAT - Exclusion Arginine A - Mod of Eli - D8] | 19.7 | 22.8 | 25.1 | 20.5 | 24.7 |
| CAAUGCAGGUCGGCCGCCACUACACACAUGAGGAUCACCCAUGUAGUUACUGGGUGAAGUGGCAGUAGGACCGGGACCUGCAUAC [Brourdmod03] | 246 | 290 | 423 | 772 | 807 |
| AAGGCUACGACCGAUACCAGUAGACGGCAUUCGUAGGAGAACAUGAGGAUCACCCAUGUCUACCCUUGGCAGCGGAAAAUACACU [theeternabot_exclusion_MS2_Theo_B_16] | 11.1 | – | 17.4 | – | 12.3 |
| UAUCCACAUGAGGAUCACCCAUGUAUGGAAGGAGCGGUGAAUGAACCAGGUAGGUCGCCAUGGUGAGGAUCAUCUAUGGAUUCGU [Exclusion - Arginine A (Freestyle 9)] | 30.3 | 56.5 | 82.4 | 72.2 | 86.7 |

Source: the supplement of paper PMC9170038
